First the molecules themselves.
B1: Azoarcus group I ribozyme (parent)
chain: GUGCCUUGCGCCGGGAAACCACGCAAGGGAUGGUGUCAAAUUCGGCGAAACCUAAGCGCCCGCCCGGGCGUAUGGCAACGCCGAGCCAAGCUUCGGCGCCUGCGCCGAUGAAGGUGUAGAGACUAGACGGCACCCACCUAAGGCAAACGCUAUGGUGAAGGCAUAGUCCAGGGAGUGGCGAAAGUCACACAAACCGG

The variants in the series derive from B1. The experiment in a line: reverse-splicing fitness (ratio to wild type); higher = more active; in vitro selection; Mg2+ level not given. Put shortly:
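An in vitro group I ribozyme library with randomized positions was T7-transcribed and gel-purified. In triplicate, 10 pmol RNA in EPPS pH 7.5 was reacted with 50 pmoles of a 30-nt RNA substrate for 1 h at 37 °C across several added MgCl2 levels (1–48 mM), then stopped with EDTA. Products were reverse transcribed from a substrate-complementary primer, PCR-amplified and sequenced (HiSeq 4000). Fitness is a variant's read proportion after selection over that before, normalised to wild type.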
With C82U A120U A145G C169G U176G, the reverse-splicing fitness was 0.00136. Consider C82U A120U A145G C169G U176C, for which the reverse-splicing fitness came to 0.00346. As for C82U A120U A145G C169G U176A, the reverse-splicing fitness was found to be 0.00271. With C82U A120U A145G C150A C169A U176G the figure was 0.00241. Consider C82U A120U A145G C150A C169A U176C, for which the reverse-splicing fitness came to 0.00294. Under C82U A120U A145G C150A C169A U176A stands 0.00482; under C82U A120U A145G C150U C169U, 0.00625. With C82U A120U A145G C150U C169G the figure was 0.00546.

For the variant C82U A120U A145G C150U C169A, the reverse-splicing fitness was determined as 0.00495. Take C82U A120U A145C C150A C169U U176C: the reverse-splicing fitness turned out to be 0.00195. Under C82U A120U A145C C150A C169U U176A stands 0.00218; under C82U A120U A145C C150A C169U U176G, 0.00151. Under C82U A120U A145G C150A U176C stands 0.0141; under C82U A120U A145G C150A U176A, 0.0113. Under C82U A120U A145G C150A U176G stands 0.00354; under C82U A120U A145G C150A C169G U176C, 0.00372.

Turning to C82U A120U A145G C150A C169G U176G, the reverse-splicing fitness is 0.00193. Under C82U A120U A145G C150A C169G U176A stands 0.00525; under C82U A120U A145C C169A U176A, 0.00163; under C82U A120U A145C C169A U176G, 0.00159. Under C82U A120U A145C C169A U176C stands 0.0016.

For C82U A120U A145G C150U C169G U176A, the reverse-splicing fitness came to 0.00433. Under C82U A120U A145G C150U C169G U176C stands 0.00361; under C82U A120U A145G C150U C169G U176G, 0.0018; under C82U A120U A145G C150A, 0.0257. With C82U A120U A145G C150U the figure was 0.137. C82U A120U A145G C150G: the reverse-splicing fitness came to 0.0229. Regarding C82U A120U A145C C150A C169U, the reverse-splicing fitness was found to be 0.00232.

For C82U A120U A145C C150U, the reverse-splicing fitness came out at 0.0391.

Turning to C82U A120U A145C C150G, the reverse-splicing fitness was 0.0193.

For the variant C82U A120U A145U C150A U176C, the reverse-splicing fitness turned out to be 0.0101. C82U A120U A145U C150A U176G: the reverse-splicing fitness was 0.00379. On to C82U A120U A145U C150A U176A, for which the reverse-splicing fitness came to 0.00666. C82U A120U A145G C169U: the reverse-splicing fitness worked out at 0.00624. Consider C82U A120U A145G C169G, for which the reverse-splicing fitness is 0.00532. Under C82U A120U A145G C169A stands 0.00259; under C82U A120U A145G C150G C169A U176G, 0.00459; under C82U A120U A145G C150G C169A U176A, 0.0107.

Regarding C82U A120U A145G C150G C169A U176C, the reverse-splicing fitness is 0.00568. Under C82U A120U A145U C150G U176C stands 0.0104. With C82U A120U A145U C150G U176A the figure was 0.00548; with C82U A120U A145U C150G U176G, 0.00253.

For C82U A120U A145G C150U C169A U176C, the reverse-splicing fitness is 0.00278.

For C82U A120U A145G C150U C169A U176A, the reverse-splicing fitness is 0.00476. Under C82U A120U A145G C150U C169A U176G stands 0.0022.

With C82U A120U A145U C150G C169A U176G, the reverse-splicing fitness was 0.0021. Under C82U A120U A145U C150G C169A U176C stands 0.00203; under C82U A120U A145U C150G C169A U176A, 0.00252; under C82U A120U A145G C150U U176C, 0.0607. Under C82U A120U A145G C150U U176A stands 0.0299. With C82U A120U A145G C150U U176G, the reverse-splicing fitness was found to be 0.0067.

In the case of C82U A120U A145U C150U C169A, the reverse-splicing fitness was 0.0024. In the case of C82U A120U A145U C150U C169U, the reverse-splicing fitness stood at 0.00476. On to C82U A120U A145U C150U C169G, for which the reverse-splicing fitness is 0.00432. Under C82U A120U A145G C150U C169U U176A stands 0.00396. With C82U A120U A145G C150U C169U U176G the figure was 0.00198; with C82U A120U A145G C150U C169U U176C, 0.00389; with C82U A120U A145U C150A C169A U176G, 0.00164. With C82U A120U A145U C150A C169A U176C, the reverse-splicing fitness is 0.00203. With C82U A120U A145U C150A C169A U176A the figure was 0.00221.

As to C82U A120U A145U C150U C169G U176A, the reverse-splicing fitness amounted to 0.00254. Take C82U A120U A145U C150U C169G U176G: the reverse-splicing fitness is 0.00157. Under C82U A120U A145U C150U C169G U176C stands 0.00299; under C82U A120U A145C C150G C169G U176C, 0.0019; under C82U A120U A145C C150G C169G U176G, 0.00188. Under C82U A120U A145C C150G C169G U176A stands 0.00206; under C82U A120U A145G C150G C169U, 0.00613; under C82U A120U A145G C150G C169G, 0.00646.

C82U A120U A145G C150G C169A: the reverse-splicing fitness came to 0.00721. Regarding C82U A120U A145G U176G, the reverse-splicing fitness was found to be 0.0114. With C82U A120U A145G U176A the figure was 0.0429; with C82U A120U A145G U176C, 0.076; with C82U A120U A145C C150U U176C, 0.0162. Under C82U A120U A145C C150U U176G stands 0.00482. Under C82U A120U A145C C150U U176A stands 0.0114; under C82U A120U A145G C150G U176C, 0.0113; under C82U A120U A145G C150G U176A, 0.00711. As to C82U A120U A145G C150G U176G, the reverse-splicing fitness turned out to be 0.00382. Under C82U A120U A145G C169U U176C stands 0.00381; under C82U A120U A145G C169U U176G, 0.00155. Under C82U A120U A145G C169U U176A stands 0.00293; under C82U A120U A145U C150A C169G U176C, 0.00274; under C82U A120U A145U C150A C169G U176A, 0.00218. For the variant C82U A120U A145U C150A C169G U176G, the reverse-splicing fitness was 0.00147.
